PMC9352680, “A comprehensive thermodynamic model for RNA binding by the Saccharomyces cerevisiae Pumilio protein PUF4”

Target: T1, PUF4 RNA-binding domain (Saccharomyces cerevisiae, UniProt P25339 537-888)
T1 sequence: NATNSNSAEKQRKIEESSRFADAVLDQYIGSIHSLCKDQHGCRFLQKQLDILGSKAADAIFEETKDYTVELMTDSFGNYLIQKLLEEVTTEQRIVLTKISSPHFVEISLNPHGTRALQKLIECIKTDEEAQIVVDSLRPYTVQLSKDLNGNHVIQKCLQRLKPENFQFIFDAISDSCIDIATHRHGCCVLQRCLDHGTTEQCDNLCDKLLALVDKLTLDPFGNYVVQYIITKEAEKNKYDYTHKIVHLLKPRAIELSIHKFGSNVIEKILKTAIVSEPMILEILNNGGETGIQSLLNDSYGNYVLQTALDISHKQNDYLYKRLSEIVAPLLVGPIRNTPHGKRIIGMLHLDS
Assay: Mg; RNA-MaP; 20 mM Na-HEPES pH 7.4, 30 mM KOAc, 0.75 mM MgCl2, 0.1% Tween-20, 5% glycerol, 0.1 mg/mL BSA, 2 mM DTT; 25 C; 0.0125-409.6 nM protein
Settings: tags: N-His6-TEV cleaved; C-SNAP kept, Cy3B-labelled; label: tethered on chip by stalled RNA polymerase

B1: Ic_S4_P4E.1_K4.1_C4.1_H4.1_A4.1_[T5C]_[A6G]_[T7C]_F4.1_T4.1 (ssRNA)
RNA: UUUGACAACUGAUCGUUCUUUCUUGUACGCUAUUCUUUCUCGAUCAGUUGUCUUU
  Kd: 2.22 nM

B2: Ic_S4_P4E.1_K4.1_C4.1_H4.1_A4.1_[T5G]_[A6T]_[T7A]_F4.1_[T8G]_[A9T]_T4.1 (ssRNA)
RNA: UUUGACAACUGAUCGUUCUUUCUUGUAGUAGUUUCUUUCUCGAUCAGUUGUCUUU
  Kd: 649 nM

B3: Ic_S4_P4E.1_K4.1_C4.1_H4.1_A4.1_[T5G]_[A6T]_[T7A]_F4.1_T4.1 (ssRNA)
RNA: UUUGACAACUGAUCGUUCUUUCUUGUAGUAUAUUCUUUCUCGAUCAGUUGUCUUU
  Kd: 2.95 nM

B4: Ic_S4_P4E.1_K4.1_C4.1_H4.1_A4.1_[T5G]_[A6T]_F4.1_[A9G]_T4.1 (ssRNA)
RNA: UUUGACAACUGAUCGUUCUUUCUUGUAGUUUGUUCUUUCUCGAUCAGUUGUCUUU
  Kd: 65 nM

B5: Ic_S4_P4E.1_K4.1_C4.1_H4.1_A4.1_[T5C]_[A6C]_[T7G]_F4.1_[T8C]_[A9G]_T4.1 (ssRNA)
RNA: UUUGACAACUGAUCGUUCUUUCUUGUACCGCGUUCUUUCUCGAUCAGUUGUCUUU
  Kd: 827 nM

B6: Ic_S4_P4E.1_K4.1_C4.1_H4.1_A4.1_[T5C]_[A6G]_[T7G]_F4.1_[T8C]_[A9T]_T4.1 (ssRNA)
RNA: UUUGACAACUGAUCGUUCUUUCUUGUACGGCUUUCUUUCUCGAUCAGUUGUCUUU
  Kd: 488 nM

B7: Ic_S4_P4E.1_K4.1_C4.1_H4.1_A4.1_[T5G]_[A6T]_[T7A]_F4.1_[A9T]_T4.1 (ssRNA)
RNA: UUUGACAACUGAUCGUUCUUUCUUGUAGUAUUUUCUUUCUCGAUCAGUUGUCUUU
  Kd: 40.6 nM

B8: Ic_S4_P4E.1_K4.1_C4.1_H4.1_A4.1_[T5C]_[A6G]_[T7C]_F4.1_[T8G]_[A9G]_T4.1 (ssRNA)
RNA: UUUGACAACUGAUCGUUCUUUCUUGUACGCGGUUCUUUCUCGAUCAGUUGUCUUU
  Kd: 1800 nM

B9: Ic_S4_P4E.1_K4.1_C4.1_H4.1_A4.1_[T5G]_[A6T]_F4.1_[A9T]_T4.1 (ssRNA)
RNA: UUUGACAACUGAUCGUUCUUUCUUGUAGUUUUUUCUUUCUCGAUCAGUUGUCUUU
  Kd: 55.8 nM

B10: Ic_S4_P4E.1_K4.1_C4.1_H4.1_A4.1_[T5G]_[A6T]_[T7A]_F4.1_[A9G]_T4.1 (ssRNA)
RNA: UUUGACAACUGAUCGUUCUUUCUUGUAGUAUGUUCUUUCUCGAUCAGUUGUCUUU
  Kd: 37.3 nM

B11: Ic_S4_P4E.1_K4.1_C4.1_H4.1_A4.1_[T5G]_[A6T]_[T7A]_F4.1_[T8A]_T4.1 (ssRNA)
RNA: UUUGACAACUGAUCGUUCUUUCUUGUAGUAAAUUCUUUCUCGAUCAGUUGUCUUU
  Kd: 445 nM

B12: Ic_S4_P4E.1_K4.1_C4.1_H4.1_A4.1_[T5C]_[A6G]_F4.1_[T8C]_[A9G]_T4.1 (ssRNA)
RNA: UUUGACAACUGAUCGUUCUUUCUUGUACGUCGUUCUUUCUCGAUCAGUUGUCUUU
  Kd: 395 nM

B13: Ic_S4_P4E.1_K4.1_C4.1_H4.1_A4.1_[T5C]_[A6G]_F4.1_[T8A]_[A9T]_T4.1 (ssRNA)
RNA: UUUGACAACUGAUCGUUCUUUCUUGUACGUAUUUCUUUCUCGAUCAGUUGUCUUU
  Kd: 30.2 nM

B14: Ic_S4_P4E.1_K4.1_C4.1_H4.1_A4.1_[T5C]_[A6G]_[T7C]_F4.1_[T8C]_[A9C]_T4.1 (ssRNA)
RNA: UUUGACAACUGAUCGUUCUUUCUUGUACGCCCUUCUUUCUCGAUCAGUUGUCUUU
  Kd: 142 nM

B15: Ic_S4_P4E.1_K4.1_C4.1_H4.1_A4.1_[T5G]_[A6T]_[T7C]_F4.1_[T8C]_[A9G]_T4.1 (ssRNA)
RNA: UUUGACAACUGAUCGUUCUUUCUUGUAGUCCGUUCUUUCUCGAUCAGUUGUCUUU
  Kd: 701 nM

B16: Ic_S4_P4E.1_K4.1_C4.1_H4.1_A4.1_[T5G]_[A6T]_[T7C]_F4.1_[A9G]_T4.1 (ssRNA)
RNA: UUUGACAACUGAUCGUUCUUUCUUGUAGUCUGUUCUUUCUCGAUCAGUUGUCUUU
  Kd: 166 nM

B17: Ic_S4_P4E.1_K4.1_C4.1_H4.1_A4.1_[T5G]_[A6T]_[T7C]_F4.1_[A9C]_T4.1 (ssRNA)
RNA: UUUGACAACUGAUCGUUCUUUCUUGUAGUCUCUUCUUUCUCGAUCAGUUGUCUUU
  Kd: 155 nM

B18: Ic_S4_P4E.1_K4.1_C4.1_H4.1_A4.1_[T5C]_[A6G]_F4.1_[T8C]_[A9C]_T4.1 (ssRNA)
RNA: UUUGACAACUGAUCGUUCUUUCUUGUACGUCCUUCUUUCUCGAUCAGUUGUCUUU
  Kd: 35 nM

B19: Ic_S4_P4E.1_K4.1_C4.1_H4.1_A4.1_[T5G]_[A6T]_F4.1_[T8A]_[A9C]_T4.1 (ssRNA)
RNA: UUUGACAACUGAUCGUUCUUUCUUGUAGUUACUUCUUUCUCGAUCAGUUGUCUUU
  Kd: 875 nM

B20: Ic_S4_P4E.1_K4.1_C4.1_H4.1_A4.1_[T5G]_[A6T]_[T7A]_F4.1_[T8C]_[A9G]_T4.1 (ssRNA)
RNA: UUUGACAACUGAUCGUUCUUUCUUGUAGUACGUUCUUUCUCGAUCAGUUGUCUUU
  Kd: 688 nM

B21: Ic_S4_P4E.1_K4.1_C4.1_H4.1_A4.1_[T5G]_[A6T]_[T7C]_F4.1_[T8C]_T4.1 (ssRNA)
RNA: UUUGACAACUGAUCGUUCUUUCUUGUAGUCCAUUCUUUCUCGAUCAGUUGUCUUU
  Kd: 445 nM

B22: Ic_S4_P4E.1_K4.1_C4.1_H4.1_A4.1_[T5C]_[A6C]_[T7G]_F4.1_[T8G]_[A9T]_T4.1 (ssRNA)
RNA: UUUGACAACUGAUCGUUCUUUCUUGUACCGGUUUCUUUCUCGAUCAGUUGUCUUU
  Kd: 2190 nM

## UCUCUUUGUCUAUUUUCUCUU (ssRNA) [Ib_S1_P4E.1_K4.1_C4.1_H4.1_[A4C]_A4.1_F4.1_[A9T]_T4.1]
  Kd: 807 nM

## UCUCUUUGUACAUGAUCUCUU (ssRNA) [Ic_S1_P4E.1_K4.1_C4.1_H4.1_A4.1_[T5C]_F4.1_[T8G]_T4.1]
  Kd: 20.2 nM

## UCUCUUUGUUUAUUUUCUCUU (ssRNA) [Ib_S1_P4E.1_K4.1_C4.1_H4.1_[A4T]_A4.1_F4.1_[A9T]_T4.1]
  Kd: 353 nM
